Test results: paper PMC12697983 (PLOS Pathogens, 2025)

Molecular target: SARS-CoV-2 wild-type spike receptor-binding domain (WT-RBD) (SARS-CoV-2, UniProt P0DTC2)
Test: SPR
Conditions: both partners purified

B1: 1C4 (murine monoclonal antibody, IgG format) (antibody, V domains shown)
VH: QIQLVQSGPELKKPGETVKISCKASGYTFTDYGLNWVKQAPGKGLKWMGWINTYSGEPTYNDEFRGRFAFSLETSTITAYLKINNLKNEDTATYFCARGGNWDWYFDVWGAGTTVTVSS
VL: DIVLTQSPATLSVTPGDNVSLSCRASQIISNNLHWYQQKSHESPRLLIKYASQSISGIPSRFSGSGSGTDFTLSINSVETEDFGMYFCQQSNTWPLTCGSGTKLELN
**Q.** How did the Kd turn out when B1 was run?
**A.** 488 pM
